The source of these data is paper doi:10.1101/2021.04.19.440493.

Assay [1] has as its target α-domain of Ag43 from UPEC UTI89 (α^43_UTI89) (E. coli O18:K1:H7 UTI89 (UPEC)). Put plainly: AUC.
Assay [2] shares this target. Kind of assay: small-angle X-ray scattering.
Assay [3] deals with α-domain of Ag43a from UPEC CFT073 (α^43a) (E. coli CFT073 (UPEC)). Put plainly: AUC.
The target is the same in assay [4]. Kind of assay: small-angle X-ray scattering.

One may read the stoichiometry N as a count of units in the complex or per binding partner. As to “α-domain of Ag43 from UPEC UTI89 (α^43_UTI89) (domain or fragment)”, the stoichiometry N in assay [1] and in assay [2] was 2 in each case.

With “α-domain of Ag43a from UPEC CFT073 (α^43a) (domain or fragment)”, the stoichiometry N in assay [3] and in assay [4] was 2 each time.
